Results taken from patent publication US12286661B2, “Methods for making high intensity sweeteners” (Firmenich Incorporated, priority 2018, dated 2025).

B1: SEQ ID NO. 1036/1037: CYP450 enzyme (DNA/protein SEQ ID NO) producing 11-OH cucurbitadienol (protein, listed as Lagenaria siceraria)
chain: MELIINNWLLILSCVGFALGLGVLKRLNNLYYAIKLGKKWDEVPPGDLSWPLLGSTLSFIKYFTLGPPHNFIAQFSNRYGKVDMYKTHIFGRASIIVCKPEICRQVLTDETKFAPGYPTTMTSLFGRRSLHRVSKVEHRKLRRLTTTPISSHAALELYIDHIEHTVINGLEEWSSMEKPLELLTVIKELTFKIIWNIFMGSTPMGSIAIREMEALYNDISLGFFCLPINFPGFYFHKSLKARKRLHEILQCIVNEKRLVKKSKGETWEAKDMMDLMIEVRDEDGEGMDDETIVDLIFGKLFAGQETSAFTTMWAILFLTNNPHVFQKAKVIDETLRVSSITFATFREAMTDVKINGKIIPKGWKVILWLRELNMDEKLHTSPQEFNPSRWDNFIGNPGAFTPFGLGVRMCPGRDLAKLEISIFLHYFLLNYKVEQLNPQCQLDYLPIPHPKDKCLARVLKVA
B2: SEQ ID NO. 1038/1039: CYP450 enzyme (DNA/protein SEQ ID NO) producing 11-OH cucurbitadienol (protein, listed as Siraitia grosvenorii)
chain: MLSFLGFAAFFFCFFLIHSLFKLFSAARRKLPLPPGSMGWPYMGETLQLYSQDPNVFFASKKKRYGPIFKSHILGYPCVMLSSPEAVKFVLVTKAHLFKPTFPASKERMLGKNAIFFHQGDYHAKLRRLVLRTFMPEAIRIMVPSIESIAKNTVQSWEGQLINTFQEMKMFAFEVSLLSIFGKDEALYFEDLKRCYYILEKGYNSMPINLPGTLFHKAMKARKELAHILNKILSTRREMKPDHNDLLGSFMGQKEGLTDEQIADNVIGLIFAARDTTASVLTWILKYLGENPSVLQAVTAEQEAIMKQKRSAHDNLTWGDTKNMPITSRVIQETLRVASVLSFTFREAVEDVEFDGYLIPKGWKVLPLFRNIHHSPEIFPQPDKFDPSRFEVAQKPNTYMPFGSGTHSCPGNELAKLEMLVLLHHLTTKYRWSVVGAQEGIQYGPFALPHNGLPIRISLKK
B3: SEQ ID NO. 1040/1041: CYP450 enzyme (DNA/protein SEQ ID NO) producing 11-OH cucurbitadienol (protein, listed as Siraitia grosvenorii)
chain: MEVELTNFWVMILAAVLGFCVFVFGFLRRFNDLWTMVKLGKKVYKTLPPGDMGWPLIGSSLWFYKAFSASGDPDSFIKHLRSRYGRVGMYKTHLFGKPAVIVTDPEICRRVYSDDKHFVMSYPKSVKILGTGSLSRIDHRITHRFMAAPINGSEALARYVGFIEQVVVRGLEEWSSMRKPIELLHEIKRLTFRIIIHVFMGSALDPHIPKLEKLYAELSAAVFVAFAIDVPGSTYHRALKAKEEIQNILRPVIEEKRRIIEKNEEMEDKCQLDAVIKGKNGKGEKIFDNDAIIDMLLGLLYAGHHTSAHGTMWALIQLLEHPQVYEKAKEEQELIMKQRPSTQKGLIFNEIKQMTYLVKVINEMLRRVSIVFANFREAATDVNINGYTIPKGWVVPVWIKGVHMDPQIYPNPEEFNPSRWDTHTPKPGAFIPFGFGNRFCPGNELAKLEITILLHHFLLKYRWERVNPKASITSVPMPSPIDQCLAKITAIPSS
B4: SEQ ID NO. 1042/1043: CYP450 enzyme (DNA/protein SEQ ID NO) producing 11-OH cucurbitadienol (protein, listed as Siraitia grosvenorii)
chain: MAIFFFFFFFLLVVSVVFVFLFLRASRFRRVRLPPGSLGLPLIGETLQLISAYKTENPEPFIDERVRRFGAVFTTHLFGEPTVFSADWETNRFILQNEEKLFECSYPGSISNLLGKHSLLLMKGNLHKRMHSLTMSFANSSIIRDHLLLDVDRLIRLNLDSWTGRIFLMEEAKKITFELAVKQLMSFDRCEWTQNLMKEYLLVIEGFFTVPLPLLSTTYRRAIRARTKVAEALGLVVRQRRKESDAGKRKNDMLGALLAAEDALSDDQIVDFLLALLVAGYETTSTTMTLAVKFLTEAPLALTQLQEEHEQIKARKKEADQHLQWNDYKSMPFTQCVVNETLRVANIISGVFRRAMTDINIKGYTIPKGWKVFASFRAVHLDHDHFKDARSFNPWRWQQNTSGSTVNAFTPFGGGPRLCPGYELARVELSVFLHHFVTQFSWVPAEDDKLVFFPTTRTQKRYPINVMRKNETRQRKDSLDSRHMKGQESSFDM
B5: SEQ ID NO. 1044/1045: CYP450 enzyme (DNA/protein SEQ ID NO) producing 11-OH cucurbitadienol (protein, listed as Siraitia grosvenorii)
chain: MDELKWFVLIPATFFLVVFVFEVLKRLNGWYYATKLWKIWDELPPGDMGWPLLGSTLSYINDFTAGQPQNFIRTFSNRYGKADMYKTHILGRASIIICTPEICRQVLTNEDKFKPSLPGNMKILSGRKSLMQVSKAEHRRLRRLTMAPISGHAALEMYISHIQATVVGGLEEWASIQRPVELVTEIKRLTFKVIWNIFMGSTSLDSSMGAMEALFSDVAVGFLSLPINFPGFYFHKSLKARKRLIEILQSIINEKRLVKKSKGESWEAKDMMDLMIEVKDEDGEELDDETIIDLIFGKLFAGHETSAFTAMWAVLFLTDHPQIFQKAKEEQEEIIRRRPSTQKGINLSDYKQMKFLSQVIDETLRVSCITSLLFREATADVEINGKIIPKGWRVLPWLGMLYMDENLFPSPQEFNPSRWDNFVPKPGAFIPFGVGNRFCPGSDLAKLEISIFLHYFLLNYKVERLNPKCHLTCLPFPHPTDKCLARVHKVA
B6: SEQ ID NO. 1046/1047: CYP450 enzyme (DNA/protein SEQ ID NO) producing 11-OH cucurbitadienol (protein, listed as Siraitia grosvenorii)
chain: MELWLWLLGASVGAYVFVFGILRNLNQWRFVTRHRNRYNLPPGDMGWPLIGTLLPFLQAFRSGRPDSFIHYFASTYGKIGMYKTYLFGSPSVIVCLPEVCRHVLMNDEQFVFGYSKATRILTGSKALNTVPKAEHRRLRRLIASLISGNDALSVYIGHVEGIVINCLQEWGSMKKPVEFLSEMKTVAFKVLLHIFIGSTSAAFIDKMEKLYTDFHLGFMSTPIDLPGTTFSRALKARNELIRIFENVLKEKRANLKSKEGENRKKDMTDLLLEVRDEDGQGLDDGCIIDLLIGFFFAGHETSAHSIMRAIMFLSENPETLLKAKAEQEQIVKARPADDQHKGLTMKEIKQMEYLSKVIDETLRKTSLAFTLSRETKVDVNLNGYTIPKGWKILVWTRAVHMDPEIYESPQKFDPSRWDNSKRRAGSFIPFGAGMRLCPGIDLSKLEIAIFLHYFIYGGFRLERVNPNCPENYLPLARPTDNCLARVVRDS
B7: SEQ ID NO. 1048/1049: CYP450 enzyme (DNA/protein SEQ ID NO) producing 11-OH cucurbitadienol (protein, listed as Siraitia grosvenorii)
chain: MWLLLIGAIVVLSFTRWLYGWKNPKCNGKLPPGSMGFPLLGETLQFFSPNTSSDVPPFIRKRMDRYGPIFRTNLVGRPLIVSTDSDLNYFIFQQEGQLFQSWYPDTFTEIFGRQNVGSLHGFMYKYLKNMVLHLFGPESLRKMIPEVEAAATRRLRQWSSHNTVELKDETASMIFDLTAKKLISYDLESSSENLRDNFVAFIQGLISFPLNVPGTAYHKCLQGRKRAMRMLKNMLQERRANPRKQQIDFFDFVLEELEKDGTLLTEEIALDLMFVLLFASFETTSLALTAAIKFLLDNPHVLEELTAEHEGILKRRENADSGLTWGEYKSMTFTFQFINETVRLANIVPGIFRKALRDIQFKGYTIPAGWAVMVCPPAVHLNPEKYIDPLAFNPWRWEKSELNGASKHFMAFGGGMRFCVGTDFTKVQMAVFLHCLVTKYRFKAIKGGNIIRTPGLQFPNGFHIQITEK
B8: SEQ ID NO. 1024/1025: CYP450 enzyme (DNA/protein SEQ ID NO) producing 11-OH cucurbitadienol (protein, listed as Citrullus lanatus)
chain: MWTILLGLATLAIAYYIHWVNKWKDSKFNGVLPPGTMGLPLIGETIQLSRPSDSLDVHPFIQSKVKRYGPIFKTCLAGRPVVVSTDAEFNHYIMLQEGRAVEMWYLDTLSKFFGLDTEWLKALGLIHKYIRSITLNHFGAESLRERFLPRIEESARETLHYWSTQPSVEVKESAAAMVFRTSIVKMFSEDSSKLLTGGLTKKFTGLLGGFLTLPLNLPGTTYNKCIKDMKEIQKKLKDILEERLAKGTGNDEDFLGQAIKDKESQQFISEEFIIQLLFSISFASFESISTSLTLILKFLADHPQVVKELEAEHEAIQKARADPDGPITWEEYKSMTFTLNVISETLRLGSVTPALLRKTTKEIQIKGYTIPEGWTVMLVTASRHRDPEVYKDPDTFNPWRWKELDSITVQKNFMPFGGGLRHCAGAEYSKVYLCTFLHILFTKYRWTKLKGGKIARAHILRFEDGLHVKFTPKE

System: cucurbitadienol
Assay: 11-OH cucurbitadienol production from cucurbitadienol by CYP450s expressed in S. cerevisiae, LCMS
Type: cell-based
Conditions: S. cerevisiae strain producing cucurbitadienol and expressing SgCPR; LCMS peak area of product vs. internal reference; hits over vector only control
From the text: DNA was obtained through gene synthesis either through Genescript, IDT, or Genewiz. For some of the cucurbitadienol synthases, cDNA or genomic DNA was obtained through 10-60 day old seedlings followed by PCR amplification using specific and degenerate primers. DNA was cloned through standard molecular biology techniques or through yeast gap repair cloning (Joska et al., 2014) into one of the following overexpression vectors: pESC-Ura, pESC-His, or pESC-LEU. Gene expression was regulated by one of the following promoters; Gall, Gal10, Tef1, or GDS. Yeast transformation was performed using Zymo Yeast Transformation Kit II. Yeast strains were grown in standard media (YPD or SC) containing the appropriate selection with 2% glucose or 2% galactose for induction of heterologous genes. Yeast strains were grown in shake flask or 96 well plates at 30° ° C., 140-250 rpm. When indicated, lanosterol synthase inhibitor, Ro 48-8071 (Cayman Chemicals) was added (50 ug/ml). Yeast samples producing mogrol precursors, mogrol and mogrosides were processed through one of the following: • Cucurbitadienol and 11-OH Cucurbitadienol: Samples cell pellets were lysed (Yeast Buster) followed by ethyl acetate extraction, drying, and resuspension in methanol. • ·Mogrol and Mogrosides: Samples cell pellets were lysed in 50% ETOH, incubated at 80° C. for 30 min, filtered, dried and resuspended in MeOH for LCMS screening.
For analyzing 11-OH cucurbitadienol, the LCMS method included the use of C8 2.1×100 mm column, gradient 60 to 90% B for 6 minutes at flow rate of 0.55 ml/min. For the enzyme screening, the LCMS method used was a Waters Acquity UPLC Protein BEH C4, 2.1×100 mm, 1.7 μm column and a gradient of 40% to 80% over 5 minutes, 95% B from 5.1 to 5.6 minutes with a flow rate of 0.55 ml/min, and ESI source positive mode single ion monitoring of 425.4.
Additional CYP450s were expressed in S. cerevisiae strain producing cucurbitadienol and expressing SgCPR. DNA and protein sequences for the CYP450 enzymes are shown in SEQ IDs 871-890 and 1024-1049 (see Table 1).

| Molecule | Peak Area 11-OH CCB |
| --- | --- |
| B1 | 0.3833 |
| B2 | 0.3528 |
| B3 | 0.3523 |
| B4 | 0.3326 |
| B5 | 0.2664 |
| B6 | 0.2276 |
| B7 | 0.2083 |
| B8 | 1.231 |
